Source: patent publication US8591908B2, “Immunogen for preparation of therapeutic vaccines or drugs for treatment of hepatitis B and the producing method and use thereof” (Institute of Immunology, PLA, priority 2002, dated 2013)
Ends that are not written are not given here. * marks the point of attachment. linolenoyl = CH3CH2CH=CHCH2CH=CH(CH2)CH=CH(CH2)7CO, CC/C=C\C/C=C\C/C=C\CCCCCCCC(=O)*; Palmitoyl = CCCCCCCCCCCCCCCC(=O)*

Experiments:
[1] = Encapsulation rate of liposome (RP-HPLC); assay type: physicochemical; details: L9(3^4) orthogonal test of lipid components and liposome forming conditions; 6 mmol/L vitamin E
Experimental: Liposome was prepared by a double emulsion method. The lipid components were dissolved in ethyl ether solution, mixed with the concentrate of the present compound to form an emulsion (W/O), then poured into phosphate buffer (PB) or water under a controlled temperature and stirred to form a further emulsion (W/O/W), and liposome was gradually formed as ethyl ether gradually volatilized. The product in free form and aggregate and precipitate in the liquid was removed by concentration in ultrafiltration apparatus and dialysis (the dialysis must be 200 folds or higher) and by filtration via a 10 μm microporous filter. Aliquots were removed for reversed phase high performance liquid chromatography (RP-HPLC) to determine the encapsulation amount, and the encapsulation rate was calculated by comparing to the incorporated amount. L9(3^4) orthogonal table was used in the experimental design.
Based on the formulation and conditions determined by said orthogonal test, the effects of the concentration of the immunogen solution on the encapsulation rate of the liposome were compared. […]

[2] = Size shrinkage of liposome after lyophilization; assay type: physicochemical; details: 5% mannitol/10 mmol/L phosphate buffer
Excerpt: In the Table 16, all of the formulations 1-11 contained a buffer of 5% mannitol/10 mmol/L phosphate(KH2PO4/Na2HPO4 was 60/40)
When the addition amount of the concentrated liposome solution was 25-50% (v/v) of the semifinished product liquor for subpackage, addition of 1% human serum albumin as excipient will result in better lyophilization effects. Thus, when the volume of the concentrated liposome solution was equal to the volume of the emulsion (W/O), the volume of the concentrated liposome solution was determined as 37.5% (v/v) of the volume of the product liquor for subpackage, i.e., an average level of the amount of the concentrated liposome solution. In this case, the concentrations of the adjuvants in the product liquor for subpackage should meet the requirements as set forth in Table 16-4. The volume of subpackage should be 1 ml and meet the requirements for the formulation of lyophilized liposome injection. In practice, the volume of the concentrated liposome solution usually is greater than the volume of emulsion (W/O), so the volume of the product liquor for subpackage may be increased. Thus, the actual subpackage volume is calculated according to the following formula.

[3] = test system: HBV-DNA, HBeAg and HBsAg; assay: FIG. 5: virus inhibition test with PBMC of HBV carrier and hepatitis patients; assay type: cell-based, hepatitis B virus; details: supernatant, with increase of co-culture time
Excerpt: FIG. 5 indicated the antiviral effects of the immunogen of the present invention. Peripheral blood mononuclear lymphocytes were separately isolated from fresh peripheral bloods of a HLA-A2+HBV carrier, a patient suffering from acute hepatitis, and a patient suffering from chronic hepatitis, and were subjected to virus inhibition tests to measure the copy numbers of HBV-DNA (A) and secretion levels of HBeAg and HBsAg in the supernatant (B, C).

[4] = test system: hepatitis B surface antigen (HBsAg) in HBV transgenic mice; assay: HBV transgenic mice: HBsAg in serum, ELISA; assay type: in vivo; details: 10th, 20th, 30th day after three immunizations, 10-1000 U/mouse
Experimental: (§1) The levels of cytokines such as IFN-γ, IL-4, etc. in supernatant were measured by the ELISA method, and the activity of the test drug (CH3(CH2)14COKSSQYIKANSKFIGITEAAASIVSPFIPLLGGGDPRVRGLYFPA) (SEQ ID NO:5) for inducing the differentiation of T cells into Th1/Th2 type was analyzed. […] The expression frequency of IFN-γ secreting cells in peripheral blood lymphocytes was measured by the ELI-SPOT method in said supernatant. […] On the 10th, 20th and 30th day after the end of the three immunizations, bloods were removed, serum isolated, and the contents of HBsAg and HBV-DNA in the serum were separately measured by the ELISA method and quantitative PCR method.

[5] = test system: HBV DNA in HBV transgenic mice; assay: HBV transgenic mice: HBV DNA in serum, quantitative PCR; assay type: in vivo; details: 10th, 20th, 30th day after three immunizations, 10-1000 U/mouse
Experimental: as §1

[6] = test system: HBV-DNA transgenic mice; assay: HBV transgenic mice: cytokines of spleen lymphocytes, ELISA (Th1/Th2); assay type: in vivo; details: 10, 100, 1000 U/mouse s.c., day 30; spleen lymphocytes restimulated with 10 ng/ml for 3 days
Experimental: as §1
Then supernatants were collected and the secretion levels of cytokines such as TNF-α, IFN-γ, IL-4, etc. in supernatants were measured by ELISA, and the activity of the test drug for inducing the conversion of Th1/Th2 type from T cells in subjects was analyzed.

[7] = test system: HBV-DNA transgenic mice; assay: HBV transgenic mice: IFN-γ secreting cells, ELI-SPOT; assay type: in vivo; details: 30th day after end of immunization
Experimental: as §1
The expression frequency of IFN-γ secreting cells in peripheral blood lymphocytes was measured by the ELI-SPOT method.

[8] = test system: enzyme-labeled antibody; assay: Potency/specific activity of stock solution or semifinished product, enzyme-linked plate; assay type: binding; details: stock solution after reversed phase chromatography; batches 1-3 and x ± Sx
Excerpt: Chromatography column AP5 20/275 POROS 50 R1 was used in the batch production. After peptide-resin was cleaved and preliminarily purified, the collected εPA44 sample was divided into 7 parts for high purification, and the effects and reproducibility for batch purification of εPA44 stock solution were furthered studied. […] The collected elution peak fractions of εPA44 were pooled and mixed homogenously, aliquots were removed for analysis. If the sample met the set standards, it was used as the stock solution and was stored at −20° C. until use. The output, yield and specific activity of the product were calculated based on the measured data.
The semifinished product to be tested was diluted to a concentration within the measurable range of the potency determination. An enzyme-linked plate( ? ) was coated, blocked, bound by enzyme-labeled antibody, and developed. The absorbance at 450 nm (A450 nm) was detected by an enzyme-labeling device, and compared to the reference of the product. The potency of εPA44 in the extract of the sample was determined, and the specific activity of the semifinished product ( ? ) was calculated.
The reference of the product was 10-fold diluted with 50% ethanol, and then was two-fold serially diluted. 100 μl dilutions were separately added to the wells on the 96-well enzyme-linket immunosorbent assay plate, each well was repeated in triplicate. Coating was carried out in refrigerator at 4° C. for 20-24 hours. The stock solution of εPA44 was diluted and coated similarly to the reference. 100 μl of 50% ethanol was added to negative control wells. After the coating was completed, 200 μl 1% calf serum was added to each well, and blocked in refrigerator at 4° C. for 2 hours. The enzyme-linket immunosorbent assay plate was dried in air, 80 μl enzyme-labeled antibody was added to each well and incubated at 37° C. for 40 minutes. The plate was washed with wash solution for 4 times and dried in air, then 50 μl of substrate solution A and 50 μl of substrate solution B were added to each well and developed at 37° C. for 15 minutes under protection from light. Then 50 μl of stop solution was added to each well. A450 nm values were detected on 550 type enzyme-linket immunosorbent assay detector. The median dilution times of the reference and the samples were calculated by program or linear regression method based on the median effect value of the reference of εPA44 (median maximum absorbance), and the potency of the test sample and the specific activity of the product were calculated according to the following formulas.

[9] = test system: T2 cells, E6 cells and HepG2.2.15 cells; assay: HBV-specific CTL from human PBMCs, 51Cr release cytotoxicity test; assay type: cell-based
Experimental: Human PBMCs were divided into groups and cultured in RPMI1640 culture media (containing 10% calf serum, and 100μ/ml penicillin-streptomycin) (10^6/ml, 24-well culture plates) in vitro for one day. After they recovered the original growth state, IL-2(30-IU/ml) and test drug (0.1 μg/ml, 1 μg/ml) were separately added. […] 3 days after the last stimulation, antigen-specific effective CTL cells were obtained. Cytotoxicity was tested by standard ^51Cr release tests and compared. Target cells (T2 cells and HepG2.2.1.5 cells pre-coated with peptide) were grown to a good state. 10 hours before the cells were used, 10 μg/ml test drug was added to the culture, and the cells were incubated. 10^6 Target cells were placed in 1 ml RPMI1640 media (containing 20% calf serum), and 100 μCi ^51Cr (NEN) was added for labelling in water-bath at 37° C. for 2 hours. The labelled target cells were washed with sterilized PBS buffer for 3 times under centrifugation (500 rpm/5 min), and were plated on 96-well V-bottom culture plates in an amount of 10^4 target cells/50 μl/well, each well was treated in triplicate. […] The minimum release value was 30% lower than the maximum release value. The formula for calculating ^51Cr release percentage was: [(CPMsample−CPMminimum release)/(CPMmaximum release−CMPminimum release)]×100%.

[10] = test system: peripheral blood mononuclear lymphocytes of HLA-A2+ healthy person; details: culture supernatant, 24 h after last stimulation

Substance	Encapsulation rate [1] [%]	degree of size shrinkage of the liposome after lyophilization [2]	also measured
1 (Palmitoyl-KSSQYIKANSKFIGITEAAAFLPSDFFPSVGGGDPRVRGLYFPA) [compound 1]	93.16	++++	
3 (KSSQYIKANSKFIGITEGGGDPRVRGLYFPA; not fully specified (N-terminus); printed as CH3CH2CH═CHCH2CH═CH(CH2)7CO7KSSQYIKANSKFIGITEGGGDPRVRGLYFPA; also: N-terminal acyl on K unclear: CH3(CH2)7CH=CH(CH2)-CO or CH3CH2CH=CHCH2CH=CH(CH2)7CO) [compound 3]	44.92	+++	
4 (Palmitoyl-KSSQYIKANSKFIGITEAAAFLPSDFFPSVGGGCTKPTDGNCT; cysteine pairing not given here) [compound 4]	69.48	++	
5 (Palmitoyl-KSSQYIKANSKFIGITEAAASIVSPFIPLLGGGDPRVRGLYFPA) [compound 5]	97.27	+++	
6 (QYIKANSKFIGITE; Th cell epitope from tetanus toxoid or variant species thereof) [compound 6]	79.26	+++	
7 (PADRE; Th cell epitope from tetanus toxoid or variant species thereof) [compound 7]	53.75	−	
8 (PLGFFPDH; Hepatitis B virus) [compound 8]	79.29	−	
9 (MQWNSTALHQALQDP; Hepatitis B virus) [compound 9]	109.4	+	
10 (SILSKTGDPV; Hepatitis B virus) [compound 10]		+	
CH3(CH2)14COKSSQYIKANSKFIGITEAAAFLPSDFFPSVGGGCTKPTDGNCT (Palmitoyl-KSSQYIKANSKFIGITEAAAFLPSDFFPSVGGGCTKPTDGNCT; cysteine pairing not given here) [SEQ ID NO:4]			copy numbers of HBV-DNA [3]: inhibited in an obvious dose-effect dependence relation; secretion level of HBeAg [3]: inhibited in an obvious dose-effect dependence relation; secretion level of HBsAg [3]: inhibited in an obvious dose-effect dependence relation
CH3(CH2)14COKSSQYIKANSKFIGITEAAASIVSPFIPLLGGGDPRVRGLYFPA (Palmitoyl-KSSQYIKANSKFIGITEAAASIVSPFIPLLGGGDPRVRGLYFPA) [SEQ ID NO:5]			HBsAg in the serum [4]: obvious decrease; HBV-DNA in the serum (copy number, replication level) [5]: obvious decrease; IL-4 secretion [6]: did not exhibit an obvious dose-effect dependence relation; secretion of IFN-γ [6]: strong secretion of IFN-γ; expression frequency of IFN-γ secreting cells in peripheral blood lymphocytes ([7]; 10-1000 U/mouse): increased with the increase of immunogen dose; highest expression frequency of IFN-γ secreting cells ([7]; IFN-α2b at 15000 U/mouse): 3660 IFN-γ secreting cells/10^6 PBMC
CH3(CH2)14COKSSYIKANSK FIGITEAAAMQWNSTALHQALQDPGGGDPRVRGLYFPA (Palmitoyl-KSSYIKANSKFIGITEAAAMQWNSTALHQALQDPGGGDPRVRGLYFPA) [SEQ ID NO:72]			Specific activity [8]: 11689.76±1503.57 U/mg
CH3CH2CH═CHCH2CH═CH(CH2)CH═CH(CH2)7COFLPSDFFPSVAAADPRVRGLYFPA (linolenoyl-FLPSDFFPSVAAADPRVRGLYFPA) [SEQ ID NO:54]			specific killing of target cells [9]: specifically kill peptide pre-coated T2 cells, E cells and HepG2.2.15 cells; target cell-specific lysis rate ([9]; PBMCs of healthy human): up to 62.8%
CH3CH2CH═CHCH2CH═CH(CH2)CH═CH(CH2)7COKSSPAREGGGWLSLLVPFVSSSDP RVRGLYFPA [SEQ ID NO:2]			effect of inducing the secretion of IL-4 [10]: not obvious; secretion of IFN-γ [10]: induce the secretion of IFN-γ in a notable dose-effect dependence relation
